Assay results reported in article PMC7206793 (Science (New York, N.Y.), 2019).

T1: β-catenin (on the human protein microarray) (human, UniProt P35222 1-781)
T1 sequence (looked up): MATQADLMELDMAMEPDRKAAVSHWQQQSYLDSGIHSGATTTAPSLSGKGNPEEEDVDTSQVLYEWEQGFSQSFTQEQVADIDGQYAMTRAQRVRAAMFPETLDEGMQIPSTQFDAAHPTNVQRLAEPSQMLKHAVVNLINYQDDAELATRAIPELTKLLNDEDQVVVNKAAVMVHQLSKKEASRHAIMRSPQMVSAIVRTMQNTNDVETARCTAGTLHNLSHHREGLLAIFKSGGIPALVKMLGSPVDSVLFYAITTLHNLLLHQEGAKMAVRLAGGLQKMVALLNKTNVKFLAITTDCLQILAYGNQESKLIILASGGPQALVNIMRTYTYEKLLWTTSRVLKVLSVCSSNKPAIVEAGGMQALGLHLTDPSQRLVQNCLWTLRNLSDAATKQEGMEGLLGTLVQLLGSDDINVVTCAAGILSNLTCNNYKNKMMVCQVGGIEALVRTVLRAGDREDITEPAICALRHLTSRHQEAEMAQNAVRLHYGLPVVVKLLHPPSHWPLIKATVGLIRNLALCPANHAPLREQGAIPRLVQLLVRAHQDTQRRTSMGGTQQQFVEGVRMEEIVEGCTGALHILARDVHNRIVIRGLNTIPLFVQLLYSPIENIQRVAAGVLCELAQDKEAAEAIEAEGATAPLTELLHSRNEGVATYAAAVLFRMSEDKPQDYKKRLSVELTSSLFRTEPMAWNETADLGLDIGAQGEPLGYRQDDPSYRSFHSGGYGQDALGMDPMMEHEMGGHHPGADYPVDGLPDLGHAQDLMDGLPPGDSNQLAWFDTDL

B1: Flag (N-terminus)- and V5 (C-terminus)-tagged recombinant human Lmbr1l protein (natural protein, UniProt Q6UX01 1-489, looked up)
chain: MEAPDYEVLSVREQLFHERIRECIISTLLFATLYILCHIFLTRFKKPAEFTTVDDEDATVNKIALELCTFTLAIALGAVLLLPFSIISNEVLLSLPRNYYIQWLNGSLIHGLWNLVFLFSNLSLIFLMPFAYFFTESEGFAGSRKGVLGRVYETVVMLMLLTLLVLGMVWVASAIVDKNKANRESLYDFWEYYLPYLYSCISFLGVLLLLVCTPLGLARMFSVTGKLLVKPRLLEDLEEQLYCSAFEEAALTRRICNPTSCWLPLDMELLHRQVLALQTQRVLLEKRRKASAWQRNLGYPLAMLCLLVLTGLSVLIVAIHILELLIDEAAMPRGMQGTSLGQVSFSKLGSFGAVIQVVLIFYLMVSSVVGFYSSPLFRSLRPRWHDTAMTQIIGNCVCLLVLSSALPVFSRTLGLTRFDLLGDFGRFNWLGNFYIVFLYNAAFAGLTTLCLVKTFTAAVRAELIRAFGLDRLPLPVSGFPQASRKTQHQ

What was measured:
[1] = biological target: B1; assay: peptide or protein array
[2] = biological target: T1, β-catenin (on the human protein …); assay: peptide or protein array

| Binder | binding result [1] | binding result [2] |
| --- | --- | --- |
| casein kinase 1 ε (on the human protein microarray) (natural protein, UniProt P49674 1-416, looked up) MELRVGNKYRLGRKIGSGSFGDIYLGANIASGEEVAIKLECVKTKHPQLHIESKFYKMMQGGVGIPSIKWCGAEGDYNVMVMELLGPSLEDLFNFCSRKFSLKTVLLLADQMISRIEYIHSKNFIHRDVKPDNFLMGLGKKGNLVYIIDFGLAKKYRDARTHQHIPYRENKNLTGTARYASINTHLGIEQSRRDDLESLGYVLMYFNLGSLPWQGLKAATKRQKYERISEKKMSTPIEVLCKGYPSEFSTYLNFCRSLRFDDKPDYSYLRQLFRNLFHRQGFSYDYVFDWNMLKFGAARNPEDVDRERREHEREERMGQLRGSATRALPPGPPTGATANRLRSAAEPVASTPASRIQPAGNTSPRAISRVDRERKVSMRLHRGAPANVSSSDLTGRQEVSRIPASQTSVPFDHLGK | binds | – |
| B1 | – | binds |
